According to patent publication US20230136331A1 (ILDONG PHARMACEUTICAL, published 2023):

Biological target: T1, human TIGIT (human, UniProt Q495A1 22-141)
T1 construct: also called hTIGIT
T1 sequence (looked up): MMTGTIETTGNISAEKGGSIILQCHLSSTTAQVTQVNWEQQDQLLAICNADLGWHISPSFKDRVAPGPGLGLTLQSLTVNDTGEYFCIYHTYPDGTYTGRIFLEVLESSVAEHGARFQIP
Test: SPR, captured by anti-human Fc, hTIGIT analyte
Excerpt: The sensorgrams for reference channel Fc1 and buffer channel were subtracted from the test sensorgrams.

B1: Tiragolumab (antibody, human IgG1, kappa, V domains shown)
VH: EVQLQQSGPGLVKPSQTLSLTCAISGDSVSSNSAAWNWIRQSPSRGLEWLGKTYYRFKWYSDYAVSVKGRITINPDTSKNQFSLQLNSVTPEDTAVFYCTRESTTYDLLAGPFDYWGQGTLVTVSS
VL: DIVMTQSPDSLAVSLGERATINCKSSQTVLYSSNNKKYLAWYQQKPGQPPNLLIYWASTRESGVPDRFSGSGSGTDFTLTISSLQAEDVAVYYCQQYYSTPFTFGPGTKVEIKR
notes: also called anti-TIGIT antibody; control antibody
  Kd: 0.0595 nM
